Test results from patent US20130195757, “SPARC BINDING APTAMERS AND USES THEREOF” (ABRAXIS BIOSCIENCE, LLC, published 2013).

What was measured:
[1] = molecular target: T1, SPARC (osteonectin), recombinant human (Biol-SPARC) (Homo sapiens, UniProt P09486 P09486:18-303); experiment: SPR; SPARC immobilized; details: tags: Biol; amine-coupled to CM5 chip or injected as analyte
T1 sequence: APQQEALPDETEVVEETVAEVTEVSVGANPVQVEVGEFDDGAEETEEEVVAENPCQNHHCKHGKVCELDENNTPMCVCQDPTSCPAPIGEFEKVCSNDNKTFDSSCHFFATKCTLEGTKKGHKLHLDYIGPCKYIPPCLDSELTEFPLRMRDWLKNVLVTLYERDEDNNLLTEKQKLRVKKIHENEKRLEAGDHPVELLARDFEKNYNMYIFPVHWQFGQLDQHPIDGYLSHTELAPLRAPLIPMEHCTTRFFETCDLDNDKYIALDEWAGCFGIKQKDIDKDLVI
Protocol: (§1) Purified SPARC was immobilized onto the surface of a CM5 biosensor chip (GE/Biacore International AB) by the use of the amine coupling kit and the Surface Preparation tool as present in the BIACORE 3000® control software. The biosensor chip surface was activated by injecting (35 μL at a flow rate of 5 μL/min) a mixture of N-hydroxysuccinimide (NHS) and N-ethyl-N′-(dimethyl-aminopropyl)-carbodiimide (EDC) (1:1; v/v) into one of the four flow channels (Fcs). Then the SPARC, diluted (0.1 mg/mL) in coupling buffer (10 mM sodium acetate, pH 4.5), was injected and bound to the activated carboxymethylated dextran surface via its primary amine groups. After coupling, the remaining active groups were blocked with ethanolamine (1 M). Purified recombinant human VEGF165 (PeproTech, Rocky Hill, N.J.) was diluted into 100 μg/mL in sodium acetate, pH 5.5 and immobilized onto the biosensor chip surface as a control, and VEGF DNA aptamers were injected (FIG. 3). To validate recovery, the resulting bound VEGF aptamers were eluted, and 2 μL were recovered, out of which 0.5 μL was amplified by PCR.
(§2) A concentration series of selected oligonucleotide DNA were injected over both reference surface and SPARC surface. Reference surfaces were used to subtract bulk refractive index responses from the specific SPARC binding signal as well as to ensure that there is no nonspecific interaction with the sensor chip surface.

[2] = molecular target: T1, SPARC (osteonectin), recombinant human …; experiment: SPR; heterogeneous ligand model KD1; KD2 0.103 mM; units as printed; details: tags: Biol; amine-coupled to CM5 chip or injected as analyte
Protocol: as §1
A concentration series of selected oligonucleotide DNA were injected over both reference surface and SPARC surface. […]

VEGF165 [3] = molecular target: T2, VEGF165 (Homo sapiens, UniProt P15692-4 P15692-4:27-191); experiment: SPR; VEGF immobilized; no specific interaction; details: tags: PeproTech; amine-coupled to CM5 chip; chain copies: 2
[4] = molecular target: T1, SPARC (osteonectin), recombinant human …; experiment: SPR; SPARC immobilized; details: tags: Biol; amine-coupled to CM5 chip or injected as analyte; remark: listed apart in the source
[5] = molecular target: T1, SPARC (osteonectin), recombinant human …; experiment: SPR; aptamer immobilized on SA chip; 1:1 Langmuir; details: tags: Biol; amine-coupled to CM5 chip or injected as analyte; label: 3'-biotin
Protocol: 20 μM each of biotinylated Apt180 (SEQ ID NO: 1), biotinylated Apt187 (SEQ ID NO: 2), or a control scrambled aptamer with biotin coupled to the 3′-end were immobilized onto commercially prepared SA sensor chips (GE/Biacore International AB), which have preimmobilized streptavidin, to allow biotin capture. Typically 1200 to 1300 RU of biotinylated aptamers were immobilized.
Using methods as described in Examples 2-3, above, biotinylated Apt180 and Apt187 were immobilized on CM5 sensorchips immobilized with streptavidin (SA sensorchips). Biol-SPARC was injected at concentrations ranging from 34.9 nM to 840 nM over the immobilized Apt180 and Apt187. For Apt180, the resulting curves were best fitted by heterogeneous ligand model indicating the possible presence of multiple binding sites.

VEGF165 [6] = molecular target: T2, VEGF165; experiment: SPR; negligible binding; details: tags: PeproTech; amine-coupled to CM5 chip; chain copies: 2
[7] = molecular target: T1, SPARC (osteonectin), recombinant human …; experiment: SPR; SPARC immobilized on CM5; HBS 10 mM HEPES 150 mM NaCl 0.005% P-20; approx 4 pM in p171; details: tags: Biol; amine-coupled to CM5 chip or injected as analyte
Protocol: After coupling, the remaining active groups were blocked with ethanolamine (1 M). Purified recombinant human VEGF165 (PeproTech, Rocky Hill, N.J.) was diluted into 100 μg/mL in sodium acetate, pH 5.5 and immobilized onto the biosensor chip surface as a control, and VEGF DNA aptamers were injected (FIG. 3). To validate recovery, the resulting bound VEGF aptamers were eluted, and 2 μL were recovered, out of which 0.5 μL was amplified by PCR.
as §2
FIG. 21 depicts a sensorgram showing the binding and dissociation of Apt180 (SEQ ID NO: 1) to a Biol-SPARC immobilized CM5 sensorchip as described in Example 3. […] FIG. 22 is a sensorgram showing the binding and dissociation of Biol-SPARC and a modified Apt180 having the 3′ primer region of the aptamer removed. As described in Example 3, Biol-SPARC was immobilized to CM5 sensorchip and various concentrations (0.625 μM, 1.25 μM, 2.5 μM, 5 μM, and 10 μM) of the 3′ primer deleted Apt180, were injected over the Biol-SPARC sensor chip. The resulting KD calculated from this experiment was 1.45 nM. […]

[8] = molecular target: T3, SPARC, mouse (from PYS-2 cells) (Mus musculus, UniProt P07214 P07214:18-302); experiment: SPR; aptamer immobilized on SA chip; details: tags: Sigma; PYS-2 parietal yolk sac cells; label: 3'-biotin
T3 sequence: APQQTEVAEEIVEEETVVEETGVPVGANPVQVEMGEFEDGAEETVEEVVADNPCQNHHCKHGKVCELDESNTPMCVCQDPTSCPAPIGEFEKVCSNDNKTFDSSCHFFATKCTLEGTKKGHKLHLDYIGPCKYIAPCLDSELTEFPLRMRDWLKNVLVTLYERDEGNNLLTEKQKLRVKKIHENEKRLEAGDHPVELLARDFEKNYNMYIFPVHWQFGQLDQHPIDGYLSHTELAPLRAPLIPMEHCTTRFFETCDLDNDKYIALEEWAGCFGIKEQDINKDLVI

Bovine serum albumin = Bovine serum albumin (Bos taurus, UniProt P02769 P02769:25-607); experiment: SPR; negligible binding; details: label: 3'-biotin
Bovine serum albumin, sequence (P02769 25-607, one chain of several): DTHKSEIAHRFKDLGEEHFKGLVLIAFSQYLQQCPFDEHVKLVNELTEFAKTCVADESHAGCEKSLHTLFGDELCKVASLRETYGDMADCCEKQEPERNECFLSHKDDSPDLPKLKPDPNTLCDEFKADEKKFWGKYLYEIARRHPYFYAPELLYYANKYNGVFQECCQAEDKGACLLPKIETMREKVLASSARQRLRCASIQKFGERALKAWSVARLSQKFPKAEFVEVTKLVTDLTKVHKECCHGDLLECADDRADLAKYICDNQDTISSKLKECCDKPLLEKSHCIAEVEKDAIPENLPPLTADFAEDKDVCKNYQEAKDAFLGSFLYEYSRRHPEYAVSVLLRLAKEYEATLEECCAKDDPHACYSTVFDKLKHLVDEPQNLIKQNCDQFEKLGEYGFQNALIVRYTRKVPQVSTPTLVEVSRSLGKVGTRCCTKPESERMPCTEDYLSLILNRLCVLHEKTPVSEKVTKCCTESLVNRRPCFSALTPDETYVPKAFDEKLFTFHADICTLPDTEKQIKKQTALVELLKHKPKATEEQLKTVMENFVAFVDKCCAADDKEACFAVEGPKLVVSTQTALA

T2 sequence (P15692 other isoform, or with tags, fused parts or gaps): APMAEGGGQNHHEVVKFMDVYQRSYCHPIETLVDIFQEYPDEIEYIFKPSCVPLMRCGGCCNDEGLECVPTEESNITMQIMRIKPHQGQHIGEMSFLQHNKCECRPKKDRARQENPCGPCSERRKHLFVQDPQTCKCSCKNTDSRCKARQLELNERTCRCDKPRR

B1: Apt216 (AptBia216) (ssDNA)
DNA: GAATTCGATGGTAACCAATGATGTTATTTTTTTGTGCTTTTATTCTTTTCATCTGATCTAGCCAAG
Q: Which Kd [1] does the source give for B1 here?
A: 447 nM

B2: Apt211 (AptBia211) (ssDNA)
DNA: GAATTCGATGGTAACCAAGGAATATTTGGGGTTTTTTGCTTCTGGACGTCATCTGATCTAGCCAAG
Q: B2 was tested. Which Kd [2] did it give?
A: 132000 nM

B3: Apt181 (ssDNA)
DNA: GAATTCGATGGTAACCAATTTCCGTATTGTTGGTTTGTGTTTGTGTCGTCATCTGATCTAGCCAAG
Q: B3 was tested. Which Kd [1] did it give?
A: 298 nM

B4: Apt208 (AptBia208) (ssDNA)
DNA: GAATTCGATGGTAACCAAGCAATTTGTATTTTTGTGTATTTATTTTGTTCATCTGATCTAGCCAAG
Q: For B4, which Kd [1] is on record?
A: 100 nM

B5: Apt191 (ssDNA)
DNA: GAATTCGATGGTAACCAAGGGGGTGTTTGTTTTTGTAGTCATTGTTGGTCATCTGATCTAGCCAAG
Q: B5 was tested. Which Kd [1] did it give?
A: 84.2 nM

Q: Does B5 bind (VEGF165 [3])?
A: no binding

B6: Apt184 (ssDNA)
DNA: GAATTCGATGGTAACCAACCCAATGTGTTTCGTTTGTTTTCATTTGTCATCTGATCTAGCCAAG
Q: How did the Kd [1] turn out when B6 was run?
A: 277 nM

B7: Apt100 (ssDNA)
DNA: GAATTCGATGGTAACCAAGGTCACTTTTTTATGTCGCTTAAATGTTGGTCATCTGATCTAGCCAAGC
Q: Which Kd [4] does the source give for B7 here?
A: ~300 nM

B8: Apt187 (ssDNA)
DNA: GAATTCGATGGTAACCAAGGCGGGGTTTTCGTATGCTCATTCCAGTGGTCATCTGATCTAGCCAAG
Q: Which Kd [4] does the source give for B8 here?
A: 0.19 nM

B9: Apt187 3'-biotin (ssDNA)
DNA: B8 DNA
Q: With B9 as the binder, how does the Kd [5] read?
A: 30.2 nM

B10: Apt180 (ssDNA)
DNA: GAATTCGATGGTAACCAAGGCTGTTCGGTATTTTGATATTTTTATGCGTCATCTGATCTAGCCAAG
Q: Does B10 bind (VEGF165 [6])?
A: no binding

Q: What about the Kd [7] of the same binder?
A: 0.0044 nM

B11: Apt180 3'-biotin (ssDNA)
DNA: B10 DNA
Q: B11 was tested. Which Kd [8] did it give?
A: 1200 nM

Q: Does B11 bind (Bovine serum albumin)?
A: no binding

B12: Apt207 (AptBia207) (ssDNA)
DNA: GAATTCGATGGTAACCAAGTGTATTGTTTATTCTTCTGTTTCTTATTGTCATCTGATCTAGCCAAG
Q: How did the Kd [1] turn out when B12 was run?
A: 139 nM

B13: Apt231 (AptBia231) (ssDNA)
DNA: GAATTCGATGGTAACCAATGCGCTTATGTTTTTTTTATTTTTTATGTTTCATCTGATCTAGCCAAG
Q: How did the Kd [1] turn out when B13 was run?
A: 45.4 nM
